Publication PMC4760375, “A dual phosphorylation switch controls 14-3-3-dependent cell surface expression of TASK-1” (Journal of Cell Science, 2016)
Values belong to the molecule of their own block, whether it stands above or below them. Non-standard residues stand in square brackets, D forms with d. Residues, ends and D or L forms follow the SMILES beside them. No end group written: not given here. pS = N[C@@H](COP(=O)(O)O)C(=O)O

Experiments:
[1] = target: T1, 14-3-3ε (Homo sapiens, UniProt P62258); experiment: Fluorescence polarization titration with 14-3-3ε; assay type: binding; conditions: versus TASK-3 pS373
T1 construct: Open reading frames encoding human 14-3-3 proteins were inserted into the pMAL2Cx vector at EcoRI and HindIII restriction sites; made in house
Description: (§1) TASK-1 or TASK-3 C-terminal fluorescent peptides (10 nM), comprising the last 15 amino acids of the respective C-termini, were titrated with concentrations of the 14-3-3 proteins ranging from 1 nM to 120 µM (Fig. 2), and the equilibrium dissociation constants of 14-3-3 proteins were calculated for TASK-1 phosphorylated at S393 (TASK-1 pS393; the conserved serine residue of the mode III 14-3-3-binding motif) and for TASK-3 phosphorylated at S373 (TASK-3 pS373) (Table 1). They ranged from 7.5±0.14 µM (mean±s.e.m.; 14-3-3β) to 49.4±2 µM (14-3-3τ) for TASK-1, whereas dissociation constants for TASK-3 ranged from 110±10 nM (14-3-3η) to 3.6±0.44 µM (14-3-3σ). The latter value matches the result determined previously by [Anders et al. (2013]) for the TASK-3 C-terminal hexapeptide using isothermal titration calorimetry. […]
(§2) Fig. 2. […] Fluorescence polarization titration of fluorescein-labeled TASK-1 pS393 (black), TASK-3 pS373 (red) and TASK-3 pS373 ΔV374 (blue) peptide (10 nM) with increasing concentrations of the indicated 14-3-3 isoform. Fluorescein was excited at 485 nm, and fluorescence polarization was monitored at 535 nm. […]
(§3) Interactions between 14-3-3 proteins and TASK-1 and TASK-3 C-terminal peptides and variants were investigated using a fluorescence polarization assay ([Moll et al., 2006]; [Muda et al., 2014]). […]

[2] = target: T2, 14-3-3σ (Homo sapiens, UniProt P31947); experiment: Fluorescence polarization titration with 14-3-3σ; assay type: binding
T2 construct: Open reading frames encoding human 14-3-3 proteins were inserted into the pMAL2Cx vector at EcoRI and HindIII restriction sites; made in house
T2 sequence (P31947 1-248): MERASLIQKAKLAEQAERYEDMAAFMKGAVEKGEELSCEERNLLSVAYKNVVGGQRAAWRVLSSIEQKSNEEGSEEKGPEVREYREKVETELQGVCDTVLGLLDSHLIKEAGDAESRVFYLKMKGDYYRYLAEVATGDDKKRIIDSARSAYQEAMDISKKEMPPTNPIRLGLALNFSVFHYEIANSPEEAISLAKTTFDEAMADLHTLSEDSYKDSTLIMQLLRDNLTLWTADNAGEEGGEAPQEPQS
Description: as §1, §2, §3

[3] = system: 14-3-3 proteins (all seven isoforms); experiment: Fluorescence polarization titration, statements across the 14-3-3 isoforms; assay type: binding, human; conditions: fluorescence polarization; 14-3-3β, 14-3-3γ, 14-3-3ζ, 14-3-3η and 14-3-3τ
Description: TASK-1 or TASK-3 C-terminal fluorescent peptides (10 nM), comprising the last 15 amino acids of the respective C-termini, were titrated with concentrations of the 14-3-3 proteins ranging from 1 nM to 120 µM (Fig. 2), and the equilibrium dissociation constants of 14-3-3 proteins were calculated for TASK-1 phosphorylated at S393 (TASK-1 pS393; the conserved serine residue of the mode III 14-3-3-binding motif) and for TASK-3 phosphorylated at S373 (TASK-3 pS373) (Table 1). They ranged from 7.5±0.14 µM (mean±s.e.m.; 14-3-3β) to 49.4±2 µM (14-3-3τ) for TASK-1, whereas dissociation constants for TASK-3 ranged from 110±10 nM (14-3-3η) to 3.6±0.44 µM (14-3-3σ). The latter value matches the result determined previously by [Anders et al. (2013]) for the TASK-3 C-terminal hexapeptide using isothermal titration calorimetry. The dissociation constants of the seven mammalian 14-3-3 isoforms for the same TASK C-terminal peptide differed up to sevenfold for TASK-1-derived peptides and up to 30-fold for TASK-3-derived peptides. […] No binding of any 14-3-3 isoform to any TASK C-terminal peptide was observed when the peptides were not phosphorylated.
Fig. 2. […] Fluorescence polarization titration of fluorescein-labeled TASK-1 pS393 (black), TASK-3 pS373 (red) and TASK-3 pS373 ΔV374 (blue) peptide (10 nM) with increasing concentrations of the indicated 14-3-3 isoform. Fluorescein was excited at 485 nm, and fluorescence polarization was monitored at 535 nm. A monophasic fit was used to fit the data (Goodness-of-fit: R^2 from 0.76 to 0.98). No binding was detectable for the unphosphorylated TASK C-terminal peptides. The assay was repeated at least six times for each data point with two batches of independently purified 14-3-3 proteins. Error bars depict s.e.m. (A) 14-3-3β, (B) 14-3-3γ, (C) 14-3-3ε, (D) 14-3-3ζ, (E) 14-3-3η and (F) 14-3-3τ.
[Mant et al. (2011)] report that both serine residues present in the TASK-1 C-terminus can be phosphorylated in vitro by the recombinant catalytic subunit of PKA. […] Next, using fluorescence polarization titration, we determined how phosphorylation of S392 affects the affinity of all seven mammalian 14-3-3 proteins for the TASK-1 C-terminus – either when phosphorylated alone or in combination with phosphorylation of S393 (Table S1). […] Because all Kd values determined for TASK-1 pS392 and the doubly phosphorylated protein (at S392 and S393) were substantially higher than those measured for TASK-1 pS393 (Table S1), we conclude that phosphorylation of S392 cannot substitute for phosphorylated S393 in creating a high-affinity 14-3-3 binding site. On the contrary, our results are consistent with an inhibitory role for phosphorylation of S392 with respect to 14-3-3-mediated binding.
Interactions between 14-3-3 proteins and TASK-1 and TASK-3 C-terminal peptides and variants were investigated using a fluorescence polarization assay ([Moll et al., 2006]; [Muda et al., 2014]). Fluorescein-labeled peptides were purchased from Peps4Life Sciences (Heidelberg, Germany). All measurements were performed in buffer containing 20 mM MOPS, 150 mM NaCl, 0.005% (v/v) CHAPS pH 7.0, using a Fusion™ α-FP microtiter plate reader at room temperature in a 384-well microtiter plater (Optiplate 384, black; Packard, Meriden, CT). 14-3-3 proteins were serially diluted from 100 µM to 1 nM and incubated with 10 nM of fluorescently labeled peptide. The fluorescence polarization signal was detected for 2 s at an excitation wavelength of 485 nm with an emission fluorescence polarization filter wavelength of 535 nm and a photomultiplier voltage of 1100. Data were analyzed with GraphPad Prism 6.0 (GraphPad Software, San Diego, CA) by plotting the obtained fluorescence polarization signal in millipolarization units (mPol) against the logarithm of the 14-3-3 protein concentration. The data were then fitted using a monophasic fit.

[4] = target: T3, 14-3-3β (Homo sapiens, UniProt P31946); experiment: Fluorescence polarization titration with 14-3-3β; assay type: binding; conditions: versus TASK-3 pS373
T3 construct: Open reading frames encoding human 14-3-3 proteins were inserted into the pMAL2Cx vector at EcoRI and HindIII restriction sites; made in house
Description: as §1, §2, §3

[5] = target: T4, 14-3-3η (human, UniProt Q04917 1-246); experiment: FP
T4 chain: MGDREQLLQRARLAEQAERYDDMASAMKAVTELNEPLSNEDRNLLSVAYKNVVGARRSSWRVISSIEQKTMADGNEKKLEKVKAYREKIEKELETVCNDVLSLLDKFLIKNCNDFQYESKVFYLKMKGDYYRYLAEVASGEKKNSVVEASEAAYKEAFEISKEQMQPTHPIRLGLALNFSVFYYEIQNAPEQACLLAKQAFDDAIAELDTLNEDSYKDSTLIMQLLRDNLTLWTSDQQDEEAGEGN

[6] = target: T5, 14-3-3ζ (human, UniProt P63104 1-245); experiment: FP
T5 chain: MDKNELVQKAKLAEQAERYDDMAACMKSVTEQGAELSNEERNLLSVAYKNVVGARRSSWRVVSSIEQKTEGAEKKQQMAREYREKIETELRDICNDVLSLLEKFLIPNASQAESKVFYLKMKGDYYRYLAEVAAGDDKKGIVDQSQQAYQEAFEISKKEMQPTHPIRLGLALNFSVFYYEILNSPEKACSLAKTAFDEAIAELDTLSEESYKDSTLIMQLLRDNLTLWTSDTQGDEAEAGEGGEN

[7] = target: T6, 14-3-3ε (human, UniProt P62258 1-255); experiment: FP
T6 chain: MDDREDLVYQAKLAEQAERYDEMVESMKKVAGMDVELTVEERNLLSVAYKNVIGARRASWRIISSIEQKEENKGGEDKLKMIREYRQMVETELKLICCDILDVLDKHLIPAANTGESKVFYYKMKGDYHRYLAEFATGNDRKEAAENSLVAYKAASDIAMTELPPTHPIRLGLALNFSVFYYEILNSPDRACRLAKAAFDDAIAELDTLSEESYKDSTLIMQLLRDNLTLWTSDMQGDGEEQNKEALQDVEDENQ

[8] = target: T7, 14-3-3τ (human, UniProt P27348 1-245); experiment: FP
T7 chain: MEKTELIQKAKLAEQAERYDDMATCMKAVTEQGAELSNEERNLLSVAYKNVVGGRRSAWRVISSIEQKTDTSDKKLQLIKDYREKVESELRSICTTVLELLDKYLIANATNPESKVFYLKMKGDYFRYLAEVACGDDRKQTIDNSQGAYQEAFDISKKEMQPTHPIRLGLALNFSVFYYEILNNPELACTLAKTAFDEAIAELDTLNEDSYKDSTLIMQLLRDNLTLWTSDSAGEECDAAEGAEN

[9] = target: T8, 14-3-3γ (human, UniProt P61981 1-247); experiment: FP
T8 chain: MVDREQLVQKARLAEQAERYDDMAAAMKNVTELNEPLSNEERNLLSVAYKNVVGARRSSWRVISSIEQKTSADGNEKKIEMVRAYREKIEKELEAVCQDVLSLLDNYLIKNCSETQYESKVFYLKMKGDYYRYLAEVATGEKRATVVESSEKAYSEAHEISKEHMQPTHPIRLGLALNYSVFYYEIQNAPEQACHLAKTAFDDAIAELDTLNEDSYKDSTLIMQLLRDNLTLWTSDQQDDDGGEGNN

[10] = target: T9, 14-3-3β (human, UniProt P31946 1-246); experiment: FP
T9 chain: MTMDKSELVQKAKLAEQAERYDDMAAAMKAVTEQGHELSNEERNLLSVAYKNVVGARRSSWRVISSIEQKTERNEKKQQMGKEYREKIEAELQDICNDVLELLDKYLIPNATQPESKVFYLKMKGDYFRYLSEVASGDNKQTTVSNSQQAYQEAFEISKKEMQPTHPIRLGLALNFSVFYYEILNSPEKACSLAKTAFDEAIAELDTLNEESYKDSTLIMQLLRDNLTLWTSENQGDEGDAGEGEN

[11] = target: T10, 14-3-3ζ (human, UniProt P63104 1-245); experiment: fluorescence polarisation; 10 nM fluorescein-labelled peptide titrated with 14-3-3 protein (1 nM to 120 µM in the results, 100 µM to 1 nM in the methods); 20 mM MOPS, 150 mM NaCl, 0.005% (v/v) CHAPS pH 7.0; room temperature; monophasic fit; conditions: both partners purified
T10 construct: 14-3-3 protein zeta, human; open reading frame inserted into pMAL2Cx; also called 14-3-3 zeta
T10 sequence (looked up): T5 chain

[12] = target: T11, 14-3-3τ (human, UniProt P27348 1-245); experiment: as above; conditions: both partners purified
T11 construct: 14-3-3 protein tau (theta), human; open reading frame inserted into pMAL2Cx; also called 14-3-3 tau
T11 sequence (looked up): T7 chain

[13] = target: T12, 14-3-3γ (human, UniProt P61981 1-247); experiment: as above; conditions: both partners purified
T12 construct: 14-3-3 protein gamma, human; open reading frame inserted into pMAL2Cx; also called 14-3-3 gamma
T12 sequence (looked up): T8 chain

[14] = target: T13, 14-3-3η (human, UniProt Q04917 1-246); experiment: as above; conditions: both partners purified
T13 construct: 14-3-3 protein eta, human; open reading frame inserted into pMAL2Cx; also called 14-3-3 eta
T13 sequence (looked up): T4 chain

fold reduction of affinity by the C-terminal deletion, 14-3-3 epsilon [1]: 23 fold
Kd, fluorescence polarization, 14-3-3σ ([2]; 10 nM fluorescein-labeled peptide titrated with 14-3-3 (1 nM to 120 µM), 20 mM MOPS, 150 mM NaCl, 0.005% CHAPS pH 7.0, room temperature, monophasic fit, ±s.e.m., n.b. = no binding detectable): n.b.±n.b.
interaction with 14-3-3σ (in words) ([2]; fluorescence polarization titration): could no longer be measured
fold reduction of affinity by the C-terminal deletion, 14-3-3β [4]: three
Molecule: CSCC[C@H](NC(=O)[C@H](CC(C)C)NC(=O)[C@H](CCCNC(=N)N)NC(=O)[C@H](CCC(N)=O)NC(=O)[C@H](Cc1c[nH]cn1)NC(=O)[C@H](CC(=O)O)NC(=O)[C@@H](NC(=O)[C@H](Cc1ccccc1)NC(=O)[C@H](CO)NC(=O)[C@@H](N)CS)[C@@H](C)O)C(=O)N[C@@H](CCCCN)C(=O)N[C@@H](CCCNC(=N)N)C(=O)N[C@@H](CCCNC(=N)N)C(=O)N[C@@H](CCCCN)C(=O)N[C@@H](COP(=O)(O)O)C(=O)O [TASK-3 pS373 ΔV374] (H-CSFTDHQRLMKRRK[pS]-OH; N-terminus assumed)
affinity range (in words) [3]: low micromolar range

Kd [5]: 1.6 µM
Kd [6]: 3.3 µM
Kd [7]: 18 µM
Kd [8]: 2.4 µM
Kd [9]: 1.1 µM
Kd [10]: 1.2 µM
binding result [11]: binds
binding result [12]: binds
binding result [13]: binds
binding result [14]: binds
B1: TASK-3 pS373 ΔV374 C-terminal fluorescent peptide (peptide, UniProt Q9NPC2 360-374, looked up)
peptide: SFTDHQRLMKRRK[pS]
modifications: also: fluorescein label, position not given here
notes: TASK-3 (KCNK9), human, C-terminal peptide with phosphorylated S373 but lacking the C-terminal valine V374; ends at pS373; source: synthetic peptide, bought: Peps4Life Sciences
